Our source for the stoichiometry N values is paper PMC5590460.

The target in the experiment is recombinant MUC5AC C terminus protein (human). Description: SDS-PAGE under non-reducing and reducing conditions with western blot; purified recombinant protein from cell lysates and cell supernatants run reduced and non-reduced on 6% Bis-Tris acrylamide or 3%-8% Tris-Acetate gels, transferred to PVDF, probed with a His antibody. In general terms: Immunoblotting shows a protein as a band on a membrane.

Turning to “recombinant MUC5AC C terminus protein (domain or fragment)”, the stoichiometry N was determined as 2.

The term stoichiometry N denotes the number of molecules, sites or subunits per partner or assembly.
